# According to paper PMC3491808 (Journal of biomolecular NMR, 2011):
# Non-standard residues stand in square brackets, D forms with d. No end group written: not given here. pT = C[C@@H](OP(=O)(O)O)[C@H](N)C(=O)O
# B1: pAPP659-682 (24-residue phosphopeptide, residues 659-682 of APP phosphorylated at T668) (peptide, UniProt P05067-4 659-682, looked up)
# peptide: GVVEVDAAV[pT]PEERHLSKMQQNGY
# Target: Pin1-PPIase (isolated catalytic PPIase domain of Pin1, residues 46-163) (human, UniProt Q13526 46-163)
# Experiment: NMR titration
# Sequence of Pin1-PPIase (isolated catalytic PPIase domain of Pin1, residues 46-163) (Q13526 46-163): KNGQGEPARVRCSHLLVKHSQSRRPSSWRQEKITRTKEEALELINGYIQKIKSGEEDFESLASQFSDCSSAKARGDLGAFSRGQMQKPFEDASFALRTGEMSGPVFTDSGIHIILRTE
binder,measurement,value
B1,Kd,1.3 mM
